Measurements taken from article PMC4703070, “cryo-EM structures of the E. coli replicative DNA polymerase reveal its dynamic interactions with the DNA sliding clamp, exonuclease and τ” (eLife, 2015).

Key:
[1] = target: T1, E. coli DNA polymerase III α with improved clamp binding motif (PolIIIα^QLDLF) (E. coli, UniProt P10443 1-1160, 920-924 QADMF to QLDLF); test: cryo-EM structure; four-protein complex assembled at 15 μM, gel filtration in 25 mM Hepes pH 7.5, 50 mM potassium glutamate, 3 mM magnesium acetate, 2 mM DTT; peak fraction (~4 μM) with 20 μM 25 bp DNA substrate; DNA-free (8.3 Å), DNA-bound (8.0 Å) and DNA-bound without tail (7.3 Å) classes from a single data set; crystal and NMR structures fitted as rigid bodies; conditions: both partners purified
T1 construct: DNA polymerase III subunit α (PolIIIα), E. coli; It says that His-tags were removed with 3C protease but not which of the proteins carried one; PDB 2HNH lacks the C-terminal tail; source: E. coli (DE3) BL21, purified (as described in Toste Rêgo et al., 2013)

[2] = target: PolIIIα (clamp-binding motif QADMF to QLDLF);DNA sliding clamp β;exonuclease ε (clamp-binding motif QTSMAF to … (Escherichia coli;Escherichia …, UniProt P10443;P0A988;P03007;P06710 1-1160;1-366;1-243;500-643, A921L;M923L||T183L;M185L;A186P;F187L|)); test: cryo-EM; 3 mM Mg acetate; 8.0 Å DNA-bound map (7.3 Å for class without visible tail/τ500); EMSA: 20 mM Tris pH 7.5, 4% glycerol, 5 mM DTT, 40 μg/ml BSA, 40 mM K glutamate, 10 min room temperature, native 6% gel; cryo-EM: 25 mM Hepes pH 7.5, 50 mM K glutamate, 3 mM Mg acetate, 2 mM DTT, ~4 μM complex + 20 μM DNA, room temperature, then Tween 20; conditions: protein: recombinant;recombinant;recombinant;recombinant; tags: ;;;His-tag removed (HRV 3C); copies: 1;2;1;1; 25 bp duplex, 5' overhang 4 nt on template strand
[3] = target: T2, E. coli DNA sliding clamp β (E. coli, UniProt P0A988 1-366); test: cryo-EM structure; four-protein complex assembled at 15 μM, gel filtration in 25 mM Hepes pH 7.5, 50 mM potassium glutamate, 3 mM magnesium acetate, 2 mM DTT; peak fraction (~4 μM) with 20 μM 25 bp DNA substrate; DNA-free (8.3 Å), DNA-bound (8.0 Å) and DNA-bound without tail (7.3 Å) classes from a single data set; crystal and NMR structures fitted as rigid bodies; conditions: both partners purified
T2 construct: DNA polymerase III β subunit (DNA sliding clamp), E. coli; dimeric; It says that His-tags were removed with 3C protease but not which of the proteins carried one; also called β subunit; source: E. coli (DE3) BL21, purified (as described in Toste Rêgo et al., 2013)

Pol IV = target: T3, Pol IV (Escherichia coli, UniProt Q47155 1-351); test: EMSA; 2.5 μM protein, 5 nM DNA; EMSA: 20 mM Tris pH 7.5, 4% glycerol, 5 mM DTT, 40 μg/ml BSA, 40 mM K glutamate, 10 min room temperature, native 6% gel; cryo-EM: 25 mM Hepes pH 7.5, 50 mM K glutamate, 3 mM Mg acetate, 2 mM DTT, ~4 μM complex + 20 μM DNA, room temperature, then Tween 20; conditions: protein: recombinant; label: 6-FAM at 5' end of primer strand; 25 bp duplex, 5' overhang 4 nt on template strand
T3 sequence: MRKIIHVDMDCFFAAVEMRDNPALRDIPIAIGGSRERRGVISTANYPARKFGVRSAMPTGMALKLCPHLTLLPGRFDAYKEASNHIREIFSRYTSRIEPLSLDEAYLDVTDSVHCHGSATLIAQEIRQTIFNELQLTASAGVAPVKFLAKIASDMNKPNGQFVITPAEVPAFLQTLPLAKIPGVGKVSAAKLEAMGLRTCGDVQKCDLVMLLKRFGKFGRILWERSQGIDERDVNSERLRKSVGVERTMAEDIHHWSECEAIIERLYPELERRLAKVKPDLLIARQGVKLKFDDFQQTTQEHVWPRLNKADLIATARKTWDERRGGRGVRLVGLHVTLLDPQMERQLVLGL

Pol I (Klenow fragment) = Pol I (Klenow fragment) (Escherichia coli, UniProt P00582 324-928); test: as above; conditions: protein: recombinant; label: 6-FAM at 5' end of primer strand; 25 bp duplex, 5' overhang 4 nt on template strand

B1: τ500 (the polymerase-binding domain of τ: residues 500–643) (domain or fragment, E. coli, UniProt P06710 500-643, looked up)
chain: ALEHEKTPELAAKLAAEAIERDPWAAQVSQLSLPKLVEQVALNAWKEESDNAVCLHLRSSQRHLNNRGAQQKLAEALSMLKGSTVELTIVEDDNPAVRTPLEWRQAIYEEKLAQARESIIADNNIQTLRRFFDAELDEESIRPI
notes: PDB 2AYA (NMR) holds residues 500-621 only; His-tags were removed with human rhinovirus 3C protease; also called τc; C-terminal domain of the clamp loader subunit τ; source: E. coli (DE3) BL21, purified (Histrap HP, Resource S, Superdex 75)
binding result [1]: binds

B2: 25 bp primer-template with 4 nt overhang (cryo-EM) (dsDNA)
DNA 1: TCAGGAGTCCTTCGTCCTAGTACTACTCC
DNA 2: GGAGTAGTACTAGGACGAAGGACTC
binding result [2]: binds

B3: E. coli proofreading exonuclease ε with improved clamp binding motif (exonuclease^QLSLPL) (enzyme, UniProt P03007 1-243, looked up)
chain: MSTAITRQIVLDTETTGMNQIGAHYEGHKIIEIGAVEVVNRRLTGNNFHVYLKPDRLVDPEAFGVHGIADEFLLDKPTFAEVADEFMDYIRGAELVIHNAAFDIGFMDYEFSLLKRDIPKTNTFCKVTDSLAVARKMFPGKRNSLDALCARYEIDNSKRTLHGALLDAQILAEVYLAMTGGQLSLPLAMEGETQQQQGEATIQRIVRQASKLRVVFATDEEIAAHEARLDLVQKKGGSCLWRA
notes: DNA polymerase III subunit ε (proofreading exonuclease), E. coli; residues 190-207 are a missing loop; source: E. coli (DE3) BL21, purified (as described in Toste Rêgo et al., 2013)
binding result [1]: binds
binding result [3]: binds

B4: 25 bp primer-template with 4 nt overhang (EMSA) (dsDNA)
DNA 1: TCAGGAGTCCTTCGTCCTAGTACTACTCC
DNA 2: GGAGTAGTACTAGGACGAAGGACTC
modifications: phosphorothioate at 3' terminal bond (primer; strand implied)
binding result (Pol IV): binds
binding result (Pol I (Klenow fragment)): binds
